Assay results as given in PMC7806223, “Structures of Rhodopseudomonas palustris RC-LH1 complexes with open or closed quinone channels” (Science Advances, 2021).
One block for each binder: values may come before it.

Legend:
Test in all cases: cryo-EM structure; RC-LH1_(14)-W complex purified from the PufW-His strain; in IMAC buffer (20 mM tris-HCl pH 8.0, 200 mM NaCl, 0.03% β-DDM); 2.65 Å
Conditions in all cases: both partners purified
RC-L (PufL) = target: T1, RC-L (PufL) (Rhodopseudomonas palustris CGA009, UniProt O83005 1-277)
T1 construct: reaction center L subunit (PufL) of Rhodopseudomonas palustris; also called subunit L; L polypeptide; source: endogenous, Rps. palustris CGA009 (ΔpufW and PufW-His strains); purified within RC-LH1 complexes from β-DDM-solubilized membranes

RC-M (PufM) = target: T2, RC-M (PufM) (Rhodopseudomonas palustris CGA009, UniProt A0A4Z7 1-307)
T2 construct: reaction center M subunit (PufM) of Rhodopseudomonas palustris; also called subunit M; M polypeptide; source: endogenous, Rps. palustris CGA009 (ΔpufW and PufW-His strains); purified within RC-LH1 complexes from β-DDM-solubilized membranes

[1] = target: T3, protein-W (PufW), C-terminally 10× His-tagged (Rhodopseudomonas palustris CGA009, UniProt Q6N1K3 1-102)
T3 construct: protein-W (PufW, RPA4402) of Rhodopseudomonas palustris, a 10.5-kDa protein with three transmembrane helices; C-terminal amino acids are unresolved in the map; also called PufW-His; RPA4402; source: Rps. palustris CGA009 PufW-His strain, expressed from the native pufW locus; purified within RC-LH1_(14)-W (Ni-NTA IMAC, DEAE, SEC); not shown: 10× His, C-terminal, kept
T3 sequence: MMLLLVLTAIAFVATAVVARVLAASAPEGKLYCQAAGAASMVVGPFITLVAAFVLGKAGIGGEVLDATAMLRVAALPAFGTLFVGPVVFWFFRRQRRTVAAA

binding result (RC-L (PufL)): binds
binding result (RC-M (PufM)): binds
B1: RC-H (PuhA) (natural protein, Rhodopseudomonas palustris CGA009, UniProt A0A4Z9 1-255, looked up)
chain: MQPGAYLDLAQVTLYVFWIFFAGLLFYLRREDKREGYPLVADAGSGTRLAKIGVPAPPDPKTYLLRGGATKTVPSTSNDRPNVALTPAAPWPGAPFVPTGNPFADGVGPGSYAQRADVPELGLDNLPIIVPLRAAKGMFLDPRDPNPVGMPVVGCDGVVGGTVTEVWVDRAEVLARYLEVEVAKSRKRVLLPVPFALINDPFGKVSVDAIRGDQFAGVPTTSKGDQVSKLEEDKICAYYGAGTLYATPLRSESLV
notes: reaction center H subunit (PuhA) of Rhodopseudomonas palustris; C-terminal amino acids are unresolved in the map; also called subunit H; source: endogenous, Rps. palustris CGA009 (ΔpufW and PufW-His strains); purified within RC-LH1 complexes from β-DDM-solubilized membranes

binding result [1]: binds
B2: LH1-β (PufB) (natural protein)
chain: not shown
notes: LH1-β (PufB) of Rhodopseudomonas palustris; mass spectrometry of wild-type RC-LH1: residues Ser2 to Ala53; resolved Gly4 to Tyr52 in RC-LH1_(16) and Ser5 to Tyr52 in RC-LH1_(14)-W, no density for 13 C-terminal residues; 14 copies in RC-LH1_(14)-W, 16 copies in RC-LH1_(16); The termini were found by mass spectrometry on mixed complexes of the wild-type strain; also called β-polypeptide; source: …
